# From the DeepSol protein solubility set
# Assay: soluble on expression in E. coli; label from the status in PepcDB or PDB records
row,Sequence,soluble on expression in E. coli
1,MGSDKIHHHHHHMGNILWVASYPKSGNTWVRAFLENYIQNAEQGVDINTMHKISTAESAAHRFQARLQDGRKTTDLSLDEICALRPAVQADIAMQAHGTTFVKTHNYLGTYKEYPLHNSSVTSGSIYIVRNPLDVTVSMANYFGYSIDETIAYMAEEMTGTPNEPENVPQVITSWSMHVSSWTQNPEEAKLVLRYEDILDDPKKVFRKIESFLGLKKDPNRLKNAIKHSSFAQLKAQESKRGFVEKHENAKSFFRQGSKNQWRQVLSDEQVAKIVEHHGEQMARFKYLPGKLR,not soluble
2,MSSPKVGFVSLGRPKALVDSERILTQLRTEGYEVTPEYNDADVVVVNTCGFIDSAKAESLEAIGEAIAENGKVIVTGCMGVEESVIRQVHPSVLAVTGPQQYEEVVRAVHGVAPPRQDHNPYLDLVPPQGVKLTPRHYAYLKISEGCNHRCSFCIIPSMRGDLVSRPVGDVLSEAERLVRAGVKELLVISQDTSAYGVDIKYRSGFWNGRPVKTRMTELCAALSELGVWTRLHYVYPYPHVDEVIGLMADGKVLPYLDIPFQHASPRILRAMKRPAFEDKTLARIKRWREECPDLTLRSTFIVGFPGETEEDFQYLLDWMSEAQLDRVGCFQYSPVEGAPANTLDNPVPDEVKQERWERFMEHQQAISTARLSTRVGREIDVLIDSVDEEGAVGRSSADAPEIDGCVYVDSEQPLKAGDMVRVRVTDSDEYDLWGERIALEHHHHHH,soluble
3,IGAWGYNVGFNLYDSKTVVTKYHNESKIILKSDGTNNYYEGYEIGSIWGYVTDGYYTADDFEDTNTWKLKEGVVTVDGVSPRPGDIKYQNLRDDGSSTNRIDTGDGTFDNPGDRKIIGNNSLRLQYGINLGVNYKGFDLSVLLQGVGKRDVWISDARRWPFNSGQFGSLFKDQLDYWKPVDSANGDWTAANPNAEYFRIYGQGNNSSYNTRAQTKYLMNGSYLRVKNVTLSYNFPKSWLAPITLTSLKAFVSCENLHTFTKLMKGYDPERLSWGYPFYRTISFGFNVTL,not soluble
4,MPNIVLSRIDERLIHGQVGVQWVGFAGANLVLVANDEVAEDPVQQNLMEMVLAEGIAVRFWTLQKVIDNIHRAADRQKILLVCKTPADFLTLVKGGVPVNRINVGNMHYANGKQQIAKTVSVDAGDIAAFNDLKTAGVECFVQGVPTEPAVDLFKLL,soluble
5,MIPTISDVSTVEEWRSVAKDIVQRDGDVNWRATIVDWPGLGYSARPKMDYDTDVMEKFVVDFMNSPESPMSQSGNDDLVIIGGGHAATLALRATQRGLLKPSAIAAVAPTWAGPLPIVFGRDSSMVSRYGMLRGTLRAPGVGWMMYNMLVSNEKSIESQYKSHVYADQTNVTDAIIQSRYELTKQKGSRYVPAAFLTGLLDPVSSREEFLQLFADLEGKLPVMVMSTKGAPKRSKAEMEALRGAKGVSKFVEVEGALLPQEEYPSLVAQELYNFLQETFAKC,not soluble
6,MKEGDTMSWQTHTVFNQPAPLNNSNLFLSDGALCEAVSREGAGWDSDLLASIGQQLGTAESLELGRLANAHPPELLRYDPQGQRLDDVRFHPAWHLLMQGLCANRVHNLAWEEEARAGSFVARAARFVLHAQVEAGTLCPVTMTFAATPLLLQMLPATFHDWLAPLRSDRYDSHLLPGGQKRGLLIGMGMTEKQGGSDVLSNTTHAERLADDSYRLVGHKWFFSVPQSDAHLVLAQAKGGLSCFFVPRFLPDGQRNSVRLERLKDKLGNRSNASAEVEFQDAIGWRLGEEGEGIRHILKMGGMTRLDCALGSHGLMRRAFSVAIYHAHQRQAFGKPLIDQPLMRQTLSRMALCLEGQTALLFRLARAWEQRREAKEALWARLFTPAAKFAICKLGIPFVAEAMEVLGGMGYCEESELPRLYREMPVNSIWEGSGNIMCLDVLRVLTKQHGVYDVLSEAFAEVKGQDRHYDRAVRQLQQRLRKPDEAMGREITQQLFLLGCGAEMLRHASPPLAQAWCQMMLDTRGEMPLPAQVQNDLLLRATGGLR,not soluble
7,MKIGYLGPKATFTEAAAALLFPSQPREPYDTIPDCIDAAAAGEIEAAVVPLENALEGSVNLTLDYLIHEQPLPIIGEIVVPIEQHLMVHPYFTPHWREVKEVYSHSHAIAQCRKFLHTVLKGAKQVPMTSTSAAAKFVSEHPHLPAAAIANRLAAEKYGLVIVQENVHDYDYNHTRFIVVSRRKEPLSPASPLYAGDKTTVVVMLPQDRPGALHQVLSAFAWRRLNLTKIESRPAKTGLGNYFFIIDIDAPMDDVLIPGAIAEIEALGCTVQLLGSYPYYFA,not soluble
8,MSNFISPVYEIKSIPIEKISPNDYNPNSVAPPEMKLLYDSIKSDGYTMPIVCYYDKEEDRYSIVDGFHRYRIMLDYSDIYERESGRLPVSVIDKSLDYRMASTIRHNRARGSHDVDLMSQIVKDLHECGRSDNWIAKHLGMDKDEILRLKQITGLASLFKDHEFNQSWEPEELLNE,soluble
9,MERQVFIRLRHRLEADPDELILLGHIAQVAGDRGYKEKLERLPIYQVSKADQSMVVLDVMKVIEAVHKSFPDLDVQTVGGSETIVEIQYPKRDLSP,soluble
10,MADLFPADFEPVFINIGDLELYNQDLDDEGTPTEAWTTFREEVKQVDGVMFVTPEYNRSVPAVLKNALDVGSRPYGESVWDKKPGLVVSVSPGAISGFGANHHLRQSLVFLNVPTLQQPEAYIGGITNLIGEDGKIIDGTVGFLQSIVDAYVDFFNRLTA,not soluble
11,MGSDKIHHHHHHMKLNRIPVVFILVLQFLSCMRKDEVLSTDPSDRLEFSEDTVFFDTLFSSVGSITKRLLVYNPGKNKIRISSVTLAGGSNSAYSVIVNGLNGPSISDIDIRGNDSIYVLVKVLIDPSNQDLPFLVSDSILFYTNTNRQKVLLSAYGQDAHFFGKESIACDAVWVNDKPYVLYDTLQVNTGCTLTIQPGCKIYFHTAAALNVRGTLIAQGSSSEPLLFASDKLSKTAQDDRGQWGGLIFQSSSSGNVISWATIRNSSTAIKLFPVIDADTIAELSLDHTFLLHASVRLIDAQEVDLAGSNLVLSDCPKALLKHTAGCGVWKHCTFANYSSGFFREETNLVLGSNMGSLKMYVLNSILWGDKSNEVTANNTPSLSLQSCIWRSAYMGTNTNVITSNPLFSKPSAFDFSLTAGSSAIDLCTGVGVPDDIAAGNRDSTPDAGAYEFK,not soluble
12,AATITTSGTVLPTVTVAGHRAAIDEAPPLYKGGQVGSGARMGVLGNTAVMDTPFSVTSYSAQVIENNQARSVADIAAMDPSVRMSSARSNINEDLTMRGFSVSSADFALNGLFGLTPYWRAPLESIERVEVIKGPSAALFGMAPGSSVGGVVNLVPKRAGDTP,not soluble
13,MGSDKIHHHHHHMSVLIECRDLSHSYGEKTVLHDLSFTVRQGGVFGLLGKNGAGKSTTINILMGFLRPGSGSCRVLGEPSHALSPHARRRIGLLHEGFIQYDFMTIAELERYYAAFYPLWDRSVFFDLTDRLQVPYSRRISCLSCGQRSQVVLGLIMAQQPQLMILDDYSMGLDVGYRRLFIDFLREYVAKRGTTVLLTSHVVQELDKIVDNMIVLREGRVAVSGSKKEFMDSFRCYSFARSPASDALHADTVLENVEHMGSVTTVYAFADGEPVARHLRDRGVDPQNMTPVPMDFEDAFVGLTGKY,not soluble
14,MTFLIKRETQVDQILRDIRAVVNQMVPKEAKITEIEFEGPELVIYVKNPEAIMKDGELIKDLAKVLKKRISVRPDPEVLLPPEEAEKLIFEIVPKEAEITNIAFDPSVGEVLIEAKKPGLVIGKNGETLRLITQKVKWAPKVVRTPPLQSQTIYSIRQILQTESKDRRKFLRQVGRNIYRKPEYKSRWIRITGLGGFREVGRSALLVQTDESFVLVDFGVNVAMLNDPYKAFPHFDAPEFQYVLREGLLDAIIITHAHLDHCGMLPYLFRYNLFDGPIYTTPPTRDLMVLLQKDFIEIQQSNGQDPLYRPRDIKEVIKHTITLDYGEVRDISPDIRLTLHNAGHILGSAIVHLHIGNGLHNIAITGDFKFIPTRLLEPANAKFPRLETLVMESTYGGANDIQMPREEAEKRLIEVIHNTIKRGGKVLIPAMAVGRAQEVMMVLEEYARIGGIEVPIYLDGMIWEATAIHTAYPEYLSRRLREQIFKEGYNPFLSEIFHPVANSRERQDIIDSNEPAIIIASSGMLVGGPSVEYFKQLAPDPKNSIIFVSYQAEGTLGRQVQSGIREIPMVGEEGRTEVIKVNMEVHTIDGFSGHADRRELMNYVAKVRPRPERIITVHGEPQKCLDLATSIHRKFGISTRAPNNLDTIRLR,soluble
15,MGSDKIHHHHHHMSITPHRLPVAPVIVREAYLSLLRKGWRPGDRDLKTPRNVKIETGIIEKAEGSALVKLGKTQVIAGVKAGVGAPFKDTPNQGVLTVHAEFVPLASPVFEPGPPDENAIELARVVDRSLREVGAVDLESLVIRPGEKVWVLWVDLYIIDHDGNLFDASMLATMAVLLTARLPRYEESETGEIIISKEGEGEELKVKTRVVTVTTAKIDRYIVVDPNIEEEAVSDVRLVTAVDENGRIVGLQKTGMGSLTEADIETMIGYSLEASKVYFKALEEAIKP,not soluble
16,MGSDKIHHHHHHMDELLEKAKKVREAWDVLRNATTREKNKAIKKIAEKLDERRKEILEANRIDVEKARERGVKESLVDRLALNDKRIDEMIKACETVIGLKDPVGEVIDSWVREDGLRIARVRVPIGPIGIIYESRPNVTVETTILALKSGNTILLRGGSDALNSNKAIVSAIREALKETEIPESSVEFIENTDRSLVLEMIRLREYLSLVIPRGGYGLISFVRDNATVPVLETGVGNCHIFVDESADLKKAVPVIINAKTQRPGTCNAAEKLLVHEKIAKEFLPVIVEELRKHGVEVRGCEKTREIVPDVVPATEDDWPTEYLDLIIAIKVVKNVDEAIEHIKKYSTGHSESILTENYSNAKKFVSEIDAAAVYVNASTRFTDGGQFGFGAEIGISTQRFHARGPVGLRELTTYKFVVLGEYHVRE,soluble
17,MKYYHHHHHHDYDIPTTENLYFQGAMAFDGEDEVTGPDADRARAAAVQAVPGGTAGEVETETGEGAAAYGVLVTRPDGTRVEVHLDRDFRVLDTEPADGDGG,soluble
18,MGSDKIHHHHHHKDYKTFPDKYTLSSVDVGGMTAKEAKKAIKKAIDKYQIKVKLDDAEFEMNAEDLGLEYNEKADMQTLINAANRNKVPDKQVKLFNMKKGDEMQNALVDSYITAMTEAQTDSTSNTDNDTDDTKQADKSDAEIFDIKTVVPYRATITYNADAGQFEGVDGVSGDAPIYDKAATKLSSAVKEMKKKAELESSTGYVEGEKAADSDAVKKALKEADAYLDVTVQRHL,not soluble
19,GPLDLSRDECKRILRKLELEAYAGVISALRAQGDLTKEKKDLLGELSKVLSISTERHRAEVRRAVNDERLTTIAHNMSGPNSSSEWSIEGRRLVPLMPRLVPQTAFTVTANAVANAAIQHNASLPVPAETGSK,soluble
20,GMTDGEAVSAAAGPGAEGPPGPVGHWAPGSHILWRYRENGGPHVHIARPVTVVRDDADLLAVWLAPGTECVKPVLADGTPVHLEPLATRYTKPRTVQRDQWFGTGVLKLARPGEAWSVWLFWDPGWRFKNWYVNLERPLTRWEGGVDSEDHFLDISVHPDRTWHWRDEDEFAQALRDGLMDPASAGRVRRAGRSAVAEIRAWGSPFADGWEHWRPDPAWPVPSLPGDWDRTPAHVSS,soluble
